B1: R,R-BDH (PP0552), (2R,3R)-2,3-BDO dehydrogenase (Pseudomonas putida KT2440) (protein)
chain: MNDLSHTHMRAAVWHGRHDIRVEQVPLPADPAPGWVQIKVDWCGICGSDLHEYVAGPVFIPVEAPHPLTGIQGQCILGHEFCGHIAKLGEGVEGYAVGDPVAADACQHCGTCYYCTHGLYNICERLAFTGLMNNGAFAELVNVPANLLYRLPQGFPAEAGALIEPLAVGMHAVKKAGSLLGQTVVVVGAGTIGLCTIMCAKAAGAAQVIALEMSSARKAKAKEAGANVVLDPSQCDALAEIRALTAGLGADVSFECIGNKHTAKLAIDTIRKAGKCVLVGIFEEPSEFNFFELVSTEKQVLGALAYNGEFADVIAFIADGRLDIRPLVTGRIGLEQIVELGFEELVNNKEENVKIIVSPGVR

What was measured:
[1] = biological target: (2R,3R)-2,3-BDO dehydrogenase (PP0552) of Pseudomonas putida KT2440 (Pseudomonas putida KT2440); test: SEC; Superdex 200 10/300 GL gel filtration; eluent 50 mM sodium phosphate pH 7.2, 150 mM sodium chloride, 0.5 mL min^-1; native molecular weight estimated against standard proteins and compared with the monomer mass
purified protein [2] = substrate: C[C@@H](O)[C@@H](C)O; test: purified protein; conditions: oxidation with NAD+ (1 mM in general assay), 50 mM Tris-HCl pH 7.4, 30 °C
purified protein [3] = substrate: C[C@H](O)[C@@H](C)O; test: purified protein; conditions: oxidation with NAD+ (1 mM in general assay), 50 mM Tris-HCl pH 7.4, 30 °C
purified protein [4] = substrate: CC(=O)C(C)O; test: purified protein; assay type: biochemical, Pseudomonas putida; conditions: reduction with NADH (0.2 mM in general assay), pH 7.4, 30 °C, apparent Km
purified protein [5] = substrate: NC(=O)C1=CN([C@@H]2O[C@H](COP(=O)(O)OP(=O)(O)OC[C@H]3O[C@@H](n4cnc5c(N)ncnc54)[C@H](O)[C@@H]3O)[C@@H](O)[C@H]2O)C=CC1; test: purified protein; assay type: biochemical, Pseudomonas putida; conditions: reductive direction, pH 7.4, 30 °C, apparent Km, varied: cofactor
purified protein [6] = substrate: NC(=O)c1ccc[n+]([C@@H]2O[C@H](COP(=O)(O)OP(=O)(O)OC[C@H]3O[C@@H](n4cnc5c(N)ncnc54)[C@H](O)[C@@H]3O)[C@@H](O)[C@H]2O)c1; test: purified protein; assay type: biochemical, Pseudomonas putida; conditions: oxidative direction, diol co-substrate not stated (10 mM in general assay), pH 7.4, 30 °C, varied: cofactor

Molecule | stoichiometry N [1] | Km (purified protein [2]) | kcat (purified protein [2]) | kcat/Km (purified protein [2]) | Km (purified protein [3]) | kcat (purified protein [3]) | kcat/Km (purified protein [3]) | Km (purified protein [4]) | kcat (purified protein [4]) | kcat/Km (purified protein [4]) | Km (purified protein [5]) | kcat (purified protein [5]) | kcat/Km (purified protein [5]) | Km (purified protein [6]) | kcat (purified protein [6]) | kcat/Km (purified protein [6])
(2R,3R)-2,3-BDO dehydrogenase (PP0552) of Pseudomonas putida KT2440 (enzyme) | 4 |  |  |  |  |  |  |  |  |  |  |  |  |  |  | 
B1 |  | 155 ± 16 µM | 23.9 s⁻¹ | 154000 M⁻¹ s⁻¹ | 251 ± 22 µM | 21.1 s⁻¹ | 84300 M⁻¹ s⁻¹ | 101 ± 5 µM | 34.34 ± 0.256 s⁻¹ | 341000 ± 16900 M⁻¹ s⁻¹ | 119 ± 22 µM | 53.3 ± 5.16 s⁻¹ | 454000 ± 36600 M⁻¹ s⁻¹ | 825 ± 96 µM | 52.8 ± 3.8 s⁻¹ | 64300 ± 3120 M⁻¹ s⁻¹

Source: publication PMC8427195, “Dehydrogenation Mechanism of Three Stereoisomers of Butane-2,3-Diol in Pseudomonas putida KT2440” (Frontiers in Bioengineering and Biotechnology, 2021)
